Test: soluble on expression in E. coli; label from the status in PepcDB or PDB records

Sequence | soluble on expression in E. coli
MSLGTVTITEMDCVDGVHRIGVATLDNTPSLNALTFDMLLQLHDQLIKWQHDPHVVCVVLSGAGEKAFCAGGDVRAMYHVMHNESKEATVEFCTKYFALEYECDYLIHTYNKPIIGWGEGIVMGGGMGLFMGTSHKVVTPISRLAMPEINIGLYPDVGGTWFLSQIDPEVGLFLGLTGALVNSSDAVTTGLADWLLLEEQYPTLLKELQKVPWGTSGAKELVSALLALLEEQIIDSKPTTQICPHLEQIKEACKGVDLNLIAQRIMAMEDSSPWIAGAKETFSSGSPITAHICFRQVKEYHRLPLADCFRLELSLSVRCALLGEFEEGVRARLIDRDGEPNWMFKTVSEVDEDVIDLLFTSLWADAEHPLAKLGEGHHHHHH | soluble
MSLGYNFHLSDMQAQLEQQAAEEETLKQQFSTKAFQAANLEAYKAQMKEMEESFGALLRQLPSDTEVPGLLEDITRTGLGSGLEFEEIKLLPEVAQQFYIELPIQISVVGGYHDLATFVSGVSSLPRIVTLHDFEIKPVAPGSTSKLRMSILAKTYRYNDKGLKKEGHHHHHH | soluble
MSLGYTTAKKEVSVVIEDGINEIINKTERFVSLKLESDISLASSIVDSISLRISDEQYINDIINGNAIKKAFLSTGFGFDSNGKVIENDPNWEPEDDYDPRSRGWYQEAKKNKRIFITEPYLDTEGKNFLVSISSPVADTMNNFIGAMYFDVDLSRIQKNVDDINLFEAGYVFITSNTGKVIIHSNTDELGKNVKDIYNGFRLDKGKVVLSVNGVNKWLYTSPILGGDWFIIAVIDESIAMQSINKMKYEEGHHHHHH | soluble
MSLHAVDHHAILARFAPSRGGDGNIFRDIDPSRLAHIVVDMQNGFMEEGAPVEVPVARTIVDNINRISAAVRDAGGHNVFLRYTTPPEGGPSWSNFMVRMGREAQGHREAFTPGAHHWQLWPTLDVREADAIVDKHRFSGFTPGTCALKDVLDARGIDTVLITGTLTNCCCESTARDAMQHNYRVLMASDANAALSDEEHAATLHIMAMVFADLHSTQEVVDLLGSEGHHHHHH | soluble
MSLHDVRVYHVQQPMRVGFGHPAATRTTSESVVLELDISGCVGLGECAPRSYVTGETCVTVCDALRSLPLARIIDELLSESPNDVLYRIKRLGIEAAFDFTAANNVVCIVELAILDWIGKRTRVSLDAMLRNGASLAESSAPIKISQVLDQNLTVDDFLRERGPFHFVKIKAHRDRAKDLETVTEIRRAIGDDTPIVIDANMSWSLIEAVEHVRKLREAGLTMVEEPFSKRSWTELHELRVQTGISIMLDESVSTLDDLRRAIGSDSCDAVNVRVSKCGGVLRSIEMIELAKSFGIQFQIGVQVAECGPLIQAGRLLASLHRDAIAVEGGQADRFFDSMIVSPDLSFDRARSTVPPPAGFGLGLSTSTEISKYLAFGYSRSADEWTATSHYTEAEGHHHHHH | soluble
MSLHPASANLSPSSVKNCSAKTFGFLILPNFTTIGLASAVETLRMANLAARKPLYRSVLIAADDAPVVASNGMRVLPDYNITNAPALDALLVVGANPIDRSRSNRPLIDWLRQLARQRLPLGGICTGSYLLAKAELLKGYRCTIHWEDLPTLQAHFPGIVISSQLFELDRDRYTCSGGVAAMDMMLQLVARDTGGQDIAAKAAELLLCDRVRGEREGHHHHHH | soluble
MSLHWLNRNTRKGSQKNIAAHYDLGNTLFEQFLDPTMMYSAAQFLSNDDTLEQAQLNKLERICQKLALKPTDHLLEIGTGWGSMAIYAAQQYGCRVTTTTLSREQFAYTEQRLIKLGLQDRVTLLLTDYRDLTGEYDKLVSIEMIEAVGHRFLPTYFKQCASLLKSNGMMLLQAITIREQRYAQAKRNVDFIQRYIFPGGALPSVAKMLDIVGSDTDMNLLHMEDFGLHYARTLRLWHDNFKHAHGTLTELGYDDYFLRLWEFYLCYCEGGFLERTIGTAQLLLAKPDALREGHHHHHH | not soluble
MSLHYPFVTNDDIEWMLSICVEWRLPEIAKEIYTTLGNQMLSAHNIIESIANFSRAGKYELVKSYSWLLFEASCMEGQKLDDPVLNAIVSKNSPAEDDVIIPQDILDCVVTNSMRQTLAPYAVLSQFYELRDREDWGQALRLLLLLIEFPYLPKHYLVLLVAKFLYPIFLLDDKKLMDEDSVATVIEVIETKWDDADEKSSNLYETIIEADKSLPSSMATLLKNLRKKLNFKLCQAFMEGHHHHHH | not soluble
MSLIAIYVRVSTEEQAIKGSSIDSQIEACIKKAGTKDVLKYADEGFSGELLERPALNRLREDASKGLISQVICYDPDRLSRKLMNQLIIDDELRKRNIPLIFVNGEYANSPEGQLFFAMRGAISEFEKAKIKERTSSGRLQKMKKGMIIKDSKLYGYKFVKEKRTLEILEEEAKIIRMIFNYFTDHKSPFFGRVNGIALHLTQMGVKTKKGEGHHHHHH | not soluble
MSLIGALIATIIPGLSNNSPPTQLSSLATLALPLPPPYTSTADTWRMVTIKPGQTLSSIFNELKLSSNDMERVLNYADLRKLLTRLSPGDEISFDIPNDGQLRGMRFNRDEKHRVELTLDDNTIHQQVSERQTSTRTVIASGEIKSSLWIAAREAGLSPADVITLTDEIFKYDIDFDKDLQTGDRFSVVMDETWREGERLPDAKILAATFNTGGKIYSGMRFMRDGKVEYFDKDGRPLKKSFIRMPISYARLSSTFGLRRHPILGTMRMHKGVDYAAATGTPIMAAGDARVQFIGQQRGYGNVVILNHGKGYRTLYGHMSRFGKIKAGQKINQGTVIGYVGMTGLATGPHLHYEFQVNGQHRNPLSITMPPPEPLRGKDLIAFRTQTAPLIAQIQQYEKRFYAITNKHDSKSTEKSTRGEGHHHHHH | not soluble
MSLIIAIQGGMAVGKTTALKIIEKVYPKIAISFEDISPVVDKINKHQLDNNKLDDYCEIQQLFIQHERDRYELVRDNEIVLMDYGAEEIAFYTQYFPKVAGYSWTLPSNLLLEVNRLKECFADYIIFLDADKTVLYQRQKNDFNRRRHFFKWYTHHLLPAKKHYLDTFSNVIHINTNHLNAEEVAEKIIDIIRKLTEGHHHHHH | soluble
MSLIIETPSKVILFGEHAVVYGYRAISMAIDLTSTIEIKETQEDEIILNLNDLNKSLGLNLNEIKNINPNNFGDFKYCLCAIKNTLDYLNIEPKTGFKINISSKIPISCGLGSSASITIGTIKAVSGFYNKELKDDEIAKLGYMVEKEIQGKASITDTSTITYKGILEIKNNKFRKIKGEFEEFLKNCKFLIVYAEKRKKKTAELVNEVAKIENKDEIFKEIDKVIDEALKIKNKEDFGKLMTKNHELLKKLNISTPKLDRIVDIGNRFGFGAKLTGAGGGGCVIILVNEEKEKELLKELNKEDVRIFNCRMMNEGGSHHHHHH | soluble
MSLIIKGALVWSGKEFVQKDLFVENGEFVEKSSEPVIDAKGYFLVPGFVDSHAHVVGTGFSKLSVQFNDWDELFERDLTSEVVVGRGWFEEPDGSVVERLDRIEAPVFLIRRCGHKAFLNKKAMEVLGVEERYLVENLEKIYEYVFKEKIAEFYRVGEEEFLKHGVTFVQSDDLYGVSVERLLSIIKHSRIRLFEKLKPKDLKPEHFGDLNKRVHVKGVKVFMDGSLGAKTALISGEYDDGTQGVQLLTEEKLEELARFCDEHDLILNVHAIGDSAVSLVLDVLERHRGHRIIHAQFVQEKDLQRVKNTTFSVQPHFFFEDQPLLKKVKVNALHYPFYRMFKAGVSISFSSDSPVSPCDPKYIAEHALKMGFSREETFYLMTEAGASQVGIKTGKIEAGYRADFCLYERNPLLFEDDPIAVFVEGEKIYEKNGSSHEGHHHHHH | soluble
MSLIITDDHMHLYNHLKLKALEQFRDAGGTHVFLVNLLCHHYGIRPTSGKDFREVFERHLSLVEKANKIVKAYAVLGVHPAEITVIGDRIGHEKAAEMMKEALEIAGKYVEEGKAVALKSGRPHYPVSRHVWQLSNDVLRHAFEVAKDVGCAIQLHTESYTKEGMLEIAKMADEVGLKREKVVKHFSPPLIKEFEEIGIFPSVLAGNNNVLKAAEQGNRFTVETDYIDDRKRPGAVLGPKTVPRKVKELIELGYEDIAYKICVENVEKVYGVELEEEGHHHHHH | soluble
MSLIQLRPCPKSYTRDQDKATTPAETVRRVRERLASLDISILAETRRVDVGRLGIPVFLSVCGADARAVMPTRKQMGKGASLEQAQASALMELMERYSFFTFWRDMPGMVEATWSEARNRFGDALIPVDEILHSVHDTLSPDDAVRALDLWRWKFFPATDITHGREVWLPLDWFKKLGEFNGSSAGNTEEESILQGSCELVERHVCCLIDRTQPELPTIDPASLDDPVLLELAAAFERNGIRLVLKDFSMGMPVPTVGAIAWDPATFPERSEIVYTAGTSSSPVKAAIRAVTEVAQLAGDFCTGACYEASGLSKYESLDDIAWLVAGPVVALDTLPSVETDDIRDELAALCDGLAATGHTLYSVSTMNPDVGVNTHYNIVPGFHFRERDRNASLGLFIGRILSEEADAGTALAGLSVLEELYPGAHFLPFFKGMLALRAESHHEAISFFEQAEPLQPEADSRGLAAFYGAYVRTLLTDWQGALPGLDRAVTECPEMKEYFNLRGVCHFKLGDYAQAAQNFAQVLHIDKGAVVDLANLGLCHKFMGDTEKAEELLSAALEIDPGLDFARRHLDEMREGHHHHHH | soluble
MSLISLQSDQLLEATVGQFMIEADKVAHVQVGNNLEHALLVLTKTGYTAIPVLDPSYRLHGLIGTNMIMNSIFGLERIEFEKLDQITVEEVMLTDIPRLHINDPIMKGFGMVINNGFVCVENDEQVFEGIFTRRVVLKELNKHIRSLNKEGGSHHHHHH | soluble
MSLIYSSENDYSILEDKTATGKKRDWKGKKRRTNLMAEHYEALESKIGAPYYGKKAEKLISCAEYLSFKRDPETGKLKLYQAHFCKVRLCPMCAWRRSLKIAYHNKLIVEEANRQYGCGWIFLTLTIRNVKGERLKPQISAMMEGFRKLFQYKKVKTSVLGFFRALEITKNHEEDTYHPHFHVLIPVRKNYFGKNYIKQAEWTSLWKKAMKLDYTPIVDIRRVKGKAKIDAEQIENDVRNAMMEQKAVLEISKYPVKDTDVVRGNKVTEDNLNTVLYLDDALAARRLIGYGGILKEIHKELNLGDAEDGDLVKIEEEDDEVANGAFEVMAYWHPGIKNYIIKEGHHHHHH | soluble
MSLKAANRYVAGEKRSDGLAIARKLQAKGYGISLENIGENTKLLAQCREAKMEFDQLIEDVGAIAPGQTVSFDLSHIGLSYQFDTAYGHLIELAEKANEHEVTLMISMEESTKTDQILAVYRQAAELYSNIGITLQAHLFRTPDDLRKLVQLPGKIRIVKGAYQEPSHLAMERSDYLNNRYLELVDHLVSTNHPVSVATHDQKLLEEMERRQFLQSTDVEIEMLYGIQPSQLKLFKEKGYQTRVYLTYGHEWFLYLCHRLAEYPENIYTALIDIINPSLPKVDDMYEGHHHHHH | not soluble
MSLKARKSWISDKGPLSVSTQCELAGVTRSGYYGQSKSLMPNTEDLELMKLIDEEYTRHPFYGSRRMKRVLLAQGRKVNRKRVQRLMRNLGLAGIAPGPNTSKPHPQHKIYPYLLRGLVITRPNHVWSTDVTYCRLPGGFMYLTAVIDWYSRKVLAWRLSNSLDSSFCVDCLEEAIRKYGMPEIFNTDQGTQYTSEAFTGVLKSHDIRISMDGRGRALDNIFVERLWRNVKQEDLYLKGYETAVEMMRGLTEYFRFYNIERPHQSLGYKTPDEVYESATGGGARIVDKFFQKSVSEGSSEATGPQQEAAEGHHHHHH | soluble
MSLKATYSMLSQVTFPLAEAGYYVVPVALADETFRQNGLTSAGDVHQVSPAKLREIYGADAALYVTVSDYGTRYMVISSATIVTASAKLVDLRSGTTLWTGSATASSEEGNGGNNGGLVGMLITAAVKQIINSSVEDAGYPIAGMTSARLLSAGQPGGLLYGPRSPRYGSDEGHHHHHH | soluble

From the DeepSol protein solubility set
